Test in all cases: FCM or ELISA, graded summary
For orientation: ELISA stands for enzyme-linked immunosorbent assay.

The target in one test is T1, human CD3D/E protein (human, UniProt P04234 22-105; P07766 23-126).
T1 construct: also called human CD3 expressing Jurkat cells

The target of another test is T2, human CD137 protein (human, UniProt Q07011 24-186).
T2 construct: also called human CD137 expressing CHO cells

Another test addresses human PD-L1 protein (human, UniProt Q9NZQ7 19-238).
The target of the next test is T3, human BCMA protein (human, UniProt Q02223 1-54).
T3 construct: also called human BCMA expressing NCI-H929 cells; human BCMA overexpressing HEK293 cells
T3 sequence (looked up): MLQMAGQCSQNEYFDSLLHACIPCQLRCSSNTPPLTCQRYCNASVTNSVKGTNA

Data on 3 molecules can be found in EP4806922A2 (Lyvgen Biopharma Holdings Limited, dated 2026).

T1 sequence (P04234 22-105, chain 1 of 2): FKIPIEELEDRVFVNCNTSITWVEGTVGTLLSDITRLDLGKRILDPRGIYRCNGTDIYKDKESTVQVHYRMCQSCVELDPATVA
T1 sequence (P07766 23-126, chain 2 of 2): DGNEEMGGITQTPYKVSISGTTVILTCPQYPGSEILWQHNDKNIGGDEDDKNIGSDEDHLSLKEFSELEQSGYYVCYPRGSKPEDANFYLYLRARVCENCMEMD
T2 sequence (Q07011 24-186 limits assumed): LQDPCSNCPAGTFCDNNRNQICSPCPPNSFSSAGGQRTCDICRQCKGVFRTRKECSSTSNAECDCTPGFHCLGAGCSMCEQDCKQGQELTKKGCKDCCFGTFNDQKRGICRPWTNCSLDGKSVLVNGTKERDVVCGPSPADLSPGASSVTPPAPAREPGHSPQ
human PD-L1 protein, sequence (Q9NZQ7 19-238 limits assumed): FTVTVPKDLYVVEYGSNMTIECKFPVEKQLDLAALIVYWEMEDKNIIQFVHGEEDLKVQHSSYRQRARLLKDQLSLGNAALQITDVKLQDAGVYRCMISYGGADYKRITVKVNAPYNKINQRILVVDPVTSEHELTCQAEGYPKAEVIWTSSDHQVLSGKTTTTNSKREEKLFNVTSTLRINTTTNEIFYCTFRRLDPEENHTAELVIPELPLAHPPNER

B1: Ly3096 (BCMA/CD3/CD137) (other)
heavy 1: QLQLQESGPGLVKPSETLSLTCTVSGGSISSGSYFWGWIRQPPGKGLEWIGSIYYSGITYYNPSLKSRVTISVDTSKNQFSLKLSSVTAADTAVYYCARHDGAVAGLFDYWGQGTLVTVSSASTKGPSVFPLAPSSKSTSGGTAALGCLVKDYFPEPVTVSWNSGALTSGVHTFPAVLQSSGLYSLSSVVTVPSSSLGTQTYICNVNHKPSNTKVDKKVEPKSCGGGGSGGGGSGGGGSGGGGSEVQLVESGGGLVQPGGSLRLSCAASGFTFSTYAMNWVRQAPGKGLEWVGRIRSKYNNYATYYADSVKGRFTISRDDSKNSLYLQMNSLKTEDTAVYYCVRHGNFGNSYVSWFAYWGQGTLVTVSSGGGGSDKTHTCPPCPAPELLGPSVFLFPPKPKDTLMISRTPEVTCVVVDVSHEDPEVKFNWYVDGVEVHNAKTKPREEQYNSTYRVVSVLTVLHQDWLNGKEYKCKVSNKALGAPIEKTISKAKGQPREPQVYTLPPSREEMTKNQVSLWCLVKGFYPSDIAVEWESNGQPENNYKTTPPVLDSDGSFFLYSKLTVDKSRWQQGNVFSCSVMHEALHNHYTQKSLSLSPGKGGGGSGGGGSGGGGSGGGGSQVQLVQSGAEVKKPGASVKVSCKASGYTFAGFEMHWVRQAPGQGLEWMGAIDPKTGGTDYNQKFKDRVTMTRDTSISTAYMELSRLRSDDTAVYYCARDLGYFDVWGQGTLVTVSS
heavy 2: QLQLQESGPGLVKPSETLSLTCTVSGGSISSGSYFWGWIRQPPGKGLEWIGSIYYSGITYYNPSLKSRVTISVDTSKNQFSLKLSSVTAADTAVYYCARHDGAVAGLFDYWGQGTLVTVSSASTKGPSVFPLAPSSKSTSGGTAALGCLVKDYFPEPVTVSWNSGALTSGVHTFPAVLQSSGLYSLSSVVTVPSSSLGTQTYICNVNHKPSNTKVDKKVEPKSCGGGGSGGGGSGGGGSGGGGSQAVVTQEPSLTVSPGGTVTLTCRSSTGAVTTSNYANWVQQKPGQAPRGLIGGTNKRAPWTPARFSGSLLGGKAALTITGAQAEDEADYYCALWYSNLWVFGGGTKLTVLGGGGSDKTHTCPPCPAPELLGPSVFLFPPKPKDTLMISRTPEVTCVVVDVSHEDPEVKFNWYVDGVEVHNAKTKPREEQYNSTYRVVSVLTVLHQDWLNGKEYKCKVSNKALGAPIEKTISKAKGQPREPQVYTLPPSREEMTKNQVSLSCAVKGFYPSDIAVEWESNGQPENNYKTTPPVLDSDGSFFLVSKLTVDKSRWQQGNVFSCSVMHEALHNRFTQKSLSLSPGKGGGGSGGGGSGGGGSGGGGSDIQMTQSPSSLSASVGDRVTITCRASQDIRSNLNWYQQKPGGAVKLLIYYTSRLHSGVPSRFSGSGSGTDYTLTISSLQPEDFATYFCQQSEKLPRTFGGGTKVEIR
light: SYVLTQPPSVSVAPGQTARITCGGNNIGSKSVHWYQQPPGQAPVVVVYDDSDRPSGIPERFSGSNSGNTATLTISRVEAGDEAVYYCQVWDSSSDHVVFGGGTKLTVLGQPKAAPSVTLFPPSSEELQANKATLVCLISDFYPGAVTVAWKGDSSPVKAGVETTTPSKQSNNKYAASSYLSLTPEQWKSHRSYSCQVTHEGSTVEKTVAPTECS
notes: Multi-specific (tri-specific) antibody with three different chains HC1, HC2, LC1; also called BCMA(b) /CD3 /CD137
Consider B1, for which the binding result with human CD3D/E protein and in the test with human CD137 protein was “binds” throughout.

B2: Ly3106 (BCMA/CD3/PD-L1) (other)
heavy 1: QLQLQESGPGLVKPSETLSLTCTVSGGSISSGSYFWGWIRQPPGKGLEWIGSIYYSGITYYNPSLKSRVTISVDTSKNQFSLKLSSVTAADTAVYYCARHDGAVAGLFDYWGQGTLVTVSSASTKGPSVFPLAPSSKSTSGGTAALGCLVKDYFPEPVTVSWNSGALTSGVHTFPAVLQSSGLYSLSSVVTVPSSSLGTQTYICNVNHKPSNTKVDKKVEPKSCGGGGSGGGGSGGGGSGGGGSEVQLVESGGGLVQPGGSLRLSCAASGFTFSTYAMNWVRQAPGKGLEWVGRIRSKYNNYATYYADSVKGRFTISRDDSKNSLYLQMNSLKTEDTAVYYCVRHGNFGNSYVSWFAYWGQGTLVTVSSGGGGSDKTHTCPPCPAPELLGPSVFLFPPKPKDTLMISRTPEVTCVVVDVSHEDPEVKFNWYVDGVEVHNAKTKPREEQYNSTYRVVSVLTVLHQDWLNGKEYKCKVSNKALGAPIEKTISKAKGQPREPQVYTLPPSREEMTKNQVSLWCLVKGFYPSDIAVEWESNGQPENNYKTTPPVLDSDGSFFLYSKLTVDKSRWQQGNVFSCSVMHEALHNHYTQKSLSLSPGKGGGGSGGGGSGGGGSGGGGSQVQLVQSGAEVKKPGASVKVSCKASGYTFTDFWMSWVRQAPGQGLEWMGQIYPNTGTTHSNEKFKGRVTMTRDTSTSTVYMELSSLRSEDTAVYYCARSYHISTTPNWFAYWGQGTLVTVSS
heavy 2: QLQLQESGPGLVKPSETLSLTCTVSGGSISSGSYFWGWIRQPPGKGLEWIGSIYYSGITYYNPSLKSRVTISVDTSKNQFSLKLSSVTAADTAVYYCARHDGAVAGLFDYWGQGTLVTVSSASTKGPSVFPLAPSSKSTSGGTAALGCLVKDYFPEPVTVSWNSGALTSGVHTFPAVLQSSGLYSLSSVVTVPSSSLGTQTYICNVNHKPSNTKVDKKVEPKSCGGGGSGGGGSGGGGSGGGGSQAVVTQEPSLTVSPGGTVTLTCRSSTGAVTTSNYANWVQQKPGQAPRGLIGGTNKRAPWTPARFSGSLLGGKAALTITGAQAEDEADYYCALWYSNLWVFGGGTKLTVLGGGGSDKTHTCPPCPAPELLGPSVFLFPPKPKDTLMISRTPEVTCVVVDVSHEDPEVKFNWYVDGVEVHNAKTKPREEQYNSTYRVVSVLTVLHQDWLNGKEYKCKVSNKALGAPIEKTISKAKGQPREPQVYTLPPSREEMTKNQVSLSCAVKGFYPSDIAVEWESNGQPENNYKTTPPVLDSDGSFFLVSKLTVDKSRWQQGNVFSCSVMHEALHNRFTQKSLSLSPGKGGGGSGGGGSGGGGSGGGGSDIQMTQSPSSLSASVGDRVTITCKASQNVYKKLEWYQQKPGKVPKVLIYHTNILQTGVPSRFSGSGSGTDYTLTISSLQPEDVATYYCYQWNSGPTFGGGTKVEIK
light: B1 light
notes: Multi-specific (tri-specific) antibody with three different chains HC1, HC2, LC1; also called BCMA(b) /CD3 /PD-L1
With B2, the binding result with human CD3D/E protein and with human PD-L1 protein was “binds” in each case.

B3: Ly2949 (BCMA/CD3/CD137) (other)
heavy 1: QVQLVQSGAEVKKPGASVKVSCKASGYTFTNHIIHWVRQAPGQGLEWMGYINPYPGYHAYNEKFQGRATMTSDTSTSTVYMELSSLRSEDTAVYYCARDGYYRDTDVLDYWGQGTLVTVSSASTKGPSVFPLAPSSKSTSGGTAALGCLVKDYFPEPVTVSWNSGALTSGVHTFPAVLQSSGLYSLSSVVTVPSSSLGTQTYICNVNHKPSNTKVDKKVEPKSCGGGGSGGGGSGGGGSGGGGSEVQLVESGGGLVQPGGSLRLSCAASGFTFSTYAMNWVRQAPGKGLEWVGRIRSKYNNYATYYADSVKGRFTISRDDSKNSLYLQMNSLKTEDTAVYYCVRHGNFGNSYVSWFAYWGQGTLVTVSSGGGGSDKTHTCPPCPAPELLGPSVFLFPPKPKDTLMISRTPEVTCVVVDVSHEDPEVKFNWYVDGVEVHNAKTKPREEQYNSTYRVVSVLTVLHQDWLNGKEYKCKVSNKALGAPIEKTISKAKGQPREPQVYTLPPSREEMTKNQVSLWCLVKGFYPSDIAVEWESNGQPENNYKTTPPVLDSDGSFFLYSKLTVDKSRWQQGNVFSCSVMHEALHNHYTQKSLSLSPGKGGGGSGGGGSGGGGSGGGGSQVQLVQSGAEVKKPGASVKVSCKASGYTFAGFEMHWVRQAPGQGLEWMGAIDPKTGGTDYNQKFKDRVTMTRDTSISTAYMELSRLRSDDTAVYYCARDLGYFDVWGQGTLVTVSS
heavy 2: QVQLVQSGAEVKKPGASVKVSCKASGYTFTNHIIHWVRQAPGQGLEWMGYINPYPGYHAYNEKFQGRATMTSDTSTSTVYMELSSLRSEDTAVYYCARDGYYRDTDVLDYWGQGTLVTVSSASTKGPSVFPLAPSSKSTSGGTAALGCLVKDYFPEPVTVSWNSGALTSGVHTFPAVLQSSGLYSLSSVVTVPSSSLGTQTYICNVNHKPSNTKVDKKVEPKSCGGGGSGGGGSGGGGSGGGGSQAVVTQEPSLTVSPGGTVTLTCRSSTGAVTTSNYANWVQQKPGQAPRGLIGGTNKRAPWTPARFSGSLLGGKAALTITGAQAEDEADYYCALWYSNLWVFGGGTKLTVLGGGGSDKTHTCPPCPAPELLGPSVFLFPPKPKDTLMISRTPEVTCVVVDVSHEDPEVKFNWYVDGVEVHNAKTKPREEQYNSTYRVVSVLTVLHQDWLNGKEYKCKVSNKALGAPIEKTISKAKGQPREPQVYTLPPSREEMTKNQVSLSCAVKGFYPSDIAVEWESNGQPENNYKTTPPVLDSDGSFFLVSKLTVDKSRWQQGNVFSCSVMHEALHNRFTQKSLSLSPGKGGGGSGGGGSGGGGSGGGGSDIQMTQSPSSLSASVGDRVTITCRASQDIRSNLNWYQQKPGGAVKLLIYYTSRLHSGVPSRFSGSGSGTDYTLTISSLQPEDFATYFCQQSEKLPRTFGGGTKVEIR
light: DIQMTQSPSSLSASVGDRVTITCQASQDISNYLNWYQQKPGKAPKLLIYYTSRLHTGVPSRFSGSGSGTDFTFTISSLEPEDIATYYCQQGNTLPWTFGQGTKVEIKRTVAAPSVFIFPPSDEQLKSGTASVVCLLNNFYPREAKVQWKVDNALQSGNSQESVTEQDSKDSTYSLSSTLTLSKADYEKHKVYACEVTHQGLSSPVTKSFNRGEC
notes: Multi-specific (tri-specific) antibody with three different chains HC1, HC2, LC1; also called BCMA(a) /CD3 /CD137; anti-BCMA/CD3/CD137 multi-specific antibody
As to B3, the binding result with human BCMA protein, with human CD3D/E protein and in the test with human CD137 protein was “binds” each time.
